Substitutions are numbered along the chain they refer to. Names may count otherwise.
Biological target: the molecule itself
Assay: SEC; Superose 12 10/300 GL, 4°C, 20 mM Tris-HCl pH 6.9, 100 mM NaCl, 0.1 mM EDTA; protein applied at 2.5 mg/ml; calibrated with standard proteins

B1: His-tagged wild type RsbP (natural protein, Bacillus subtilis, UniProt O07014 1-403, looked up)
chain: MDKQLNDAPCGFLALSEEGSIIAANRTLIKILDYEPEQVIGQHMNMMLTIPAQLFCQLYFFPLLKLEHHIEEIYISLKARDGEEIPVLINAIARHDSGASVFDCVLIPMRKRNEYENELLIARNEAQEALLAKQKANAELEIALETLKAKQEELLEINKQNQQFKLNTKRELELARKIQKNSLTEPIVNDQVQIDSYYNASSELSGDLYGYYQIDEHRYGIIILDVMGHGISSALITMSLHPLFQRQITQGLSPVKVMKELDRHLHSLFQNDEEARHYCTAIYLEIDIARQRIDYVNAGHPPALWQDDSGTQHLLHATSPPIGMFEDLEFQSSSLSYTEDGRLLLYTDGVMDPTASCYLFDLLKDHPDSPIADLKEKILTSLQHQKEAHHKSDDECFILVDVK
notes: RsbP serine phosphatase, Bacillus subtilis; called full-length in the results and discussion; predicted monomer mass of the His-tagged protein 48,325; also called WT
  stoichiometry N: 4

B2: His-tagged RsbP-F55A (natural protein, Bacillus subtilis, UniProt O07014 1-403, looked up)
chain: B1 chain with F55A
notes: RsbP serine phosphatase, Bacillus subtilis, with F55A
  binding result: binds
